The target of assay [1] is Toll-like receptor 4 (TLR-4) of Caco-2 cells (human (endogenous in Caco-2)) (UniProt O00206).
Assay [2] shares this target. This is another data set of the same source.

Chain of UniProt O00206 (O00206 24-839): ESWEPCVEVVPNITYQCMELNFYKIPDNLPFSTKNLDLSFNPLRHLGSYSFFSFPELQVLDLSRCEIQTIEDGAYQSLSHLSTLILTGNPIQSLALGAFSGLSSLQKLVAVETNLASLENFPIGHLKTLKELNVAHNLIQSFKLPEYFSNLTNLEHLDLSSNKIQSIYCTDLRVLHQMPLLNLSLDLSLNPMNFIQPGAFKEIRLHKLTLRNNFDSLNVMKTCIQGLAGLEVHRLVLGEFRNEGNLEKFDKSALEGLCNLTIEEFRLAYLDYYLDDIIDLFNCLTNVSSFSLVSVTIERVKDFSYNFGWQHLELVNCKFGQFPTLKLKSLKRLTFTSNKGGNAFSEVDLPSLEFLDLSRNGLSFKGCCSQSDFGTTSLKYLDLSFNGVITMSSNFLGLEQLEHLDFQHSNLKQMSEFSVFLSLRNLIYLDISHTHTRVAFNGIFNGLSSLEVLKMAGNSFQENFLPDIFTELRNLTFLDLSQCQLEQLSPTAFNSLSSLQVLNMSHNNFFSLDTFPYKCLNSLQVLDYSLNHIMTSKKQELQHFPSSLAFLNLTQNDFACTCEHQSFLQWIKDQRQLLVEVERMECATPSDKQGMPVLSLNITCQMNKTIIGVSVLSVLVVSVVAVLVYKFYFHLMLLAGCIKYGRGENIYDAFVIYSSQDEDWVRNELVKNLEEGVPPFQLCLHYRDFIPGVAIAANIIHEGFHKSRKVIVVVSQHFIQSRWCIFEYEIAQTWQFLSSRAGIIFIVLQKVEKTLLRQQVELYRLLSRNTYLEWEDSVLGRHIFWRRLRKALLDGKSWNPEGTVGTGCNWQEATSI

In assay [1], “recombinant Trichinella spiralis galectin with GST tag (GST-rTsgal) (natural protein)” displayed a TLR-4 protein expression level (Western blot) in Caco-2 cells incubated with rTsgal (50 µg/mL) for 48 h, increase against the PBS group of 47.7% and a TLR-4 transcription level (qPCR) in Caco-2 cells incubated with rTsgal (50 µg/mL) for 48 h, increase against the PBS group of 18.4%. The same substance came in with an NF-κB p65 transcription level (qPCR) in Caco-2 cells treated with rTsgal for 48 h, increase against the PBS group in assay [2] of 60.2%.
